Target: IgG4 Fc fragment SEQ ID NO: 102, no modification (Homo sapiens (Human)) [IgG part: P01861]
Assay: SEC peak area ratio; coexpression of full-length heavy chain, light chain and Fc fragment

IgG4 Fc fragment SEQ ID NO: 102, no modification (Homo sapiens (Human)) [IgG part: P01861], sequence (P01861 other isoform, or with tags, fused parts or gaps limits assumed): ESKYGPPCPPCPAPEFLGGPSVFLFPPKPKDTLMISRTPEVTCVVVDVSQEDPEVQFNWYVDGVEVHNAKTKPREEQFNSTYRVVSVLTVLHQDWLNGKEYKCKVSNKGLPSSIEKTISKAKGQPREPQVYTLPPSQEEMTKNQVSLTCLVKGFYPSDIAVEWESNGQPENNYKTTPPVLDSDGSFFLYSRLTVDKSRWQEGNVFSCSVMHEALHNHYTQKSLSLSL

IgG4 full-length heavy chain SEQ ID NO: 110 with Q347E/S354Y/T366Y/Y407T, expressed with light chain SEQ ID NO: 61 (antibody)
Heteromultimer (%): 4.6%

Source: patent US20260217835A1
